# B1: Guanyl-specific ribonuclease Sa wild type, P05798 (protein)
# chain: DVSGTVCLSALPPEATDTLNLIASDGPFPYSQDGVVFQNRESVLPTQSYGYYHEYTVITPGARTRGTRRIITGEATQEDYYTGDHYATFSLIDQTC
# Conditions: Kitasatospora aureofaciens; pH 7; Thermal; DSC; PIPES 0.03 M; reversible: yes (90-95%); whole UniProt chain shown
protein,measurement,value
B1,Tm,49 °C
same,unfolding enthalpy (calorimetric),92 kcal/mol
same,unfolding enthalpy (van 't Hoff),103 kcal/mol
